According to patent US20170233490A1 (Hoffmann-La Roche, published 2017):
Where “and” joins values, the source holds several entries; their conditions need not be identical. Equal entries are not always repeated.

Columns and labels:
HER3 ECD-HRG complex [1] = molecular target: T1, HER3 ECD-HRG complex (human, UniProt P21860 20-643); experiment: SPR Biacore T100; reference: HER3-ECD without Heregulin
T1 construct: HER3 ECD preincubated with a 3- to 6-fold molar excess of Heregulin ('open' conformation); biotinylated Her3-ECD in the ribosome display; also called HER3-ECD/HRG1β
Procedure: (§1) A CM5 series sensor was mounted into the system and was normalized in HBS-ET buffer (10 mM HEPES pH 7.4, 150 mM NaCl, 3 mM EDTA, 0.005% w/v Tween 20) according to the manufacturer's instructions. The sample buffer was the system buffer supplemented with 1 mg/ml CMD (Carboxymethyldextran, Sigma #86524). The system operated at 25° C. 6500 RU RAM-Fcγ (relative units of Fcγ-fragment RamIgG, GE Healthcare) were immobilized according to the manufacturer's instructions using EDC/NHS chemistry on all four flow cells. The sensor was deactivated using 1M ethanolamine.

[2] = molecular target: T2, human HER4 Extracellular Domain (ECD) (human, UniProt Q15303 26-651); experiment: SPR Biacore T100, antibody captured, 25 C
T2 construct: also called Her4 ECD; HER4-ECD
T2 sequence: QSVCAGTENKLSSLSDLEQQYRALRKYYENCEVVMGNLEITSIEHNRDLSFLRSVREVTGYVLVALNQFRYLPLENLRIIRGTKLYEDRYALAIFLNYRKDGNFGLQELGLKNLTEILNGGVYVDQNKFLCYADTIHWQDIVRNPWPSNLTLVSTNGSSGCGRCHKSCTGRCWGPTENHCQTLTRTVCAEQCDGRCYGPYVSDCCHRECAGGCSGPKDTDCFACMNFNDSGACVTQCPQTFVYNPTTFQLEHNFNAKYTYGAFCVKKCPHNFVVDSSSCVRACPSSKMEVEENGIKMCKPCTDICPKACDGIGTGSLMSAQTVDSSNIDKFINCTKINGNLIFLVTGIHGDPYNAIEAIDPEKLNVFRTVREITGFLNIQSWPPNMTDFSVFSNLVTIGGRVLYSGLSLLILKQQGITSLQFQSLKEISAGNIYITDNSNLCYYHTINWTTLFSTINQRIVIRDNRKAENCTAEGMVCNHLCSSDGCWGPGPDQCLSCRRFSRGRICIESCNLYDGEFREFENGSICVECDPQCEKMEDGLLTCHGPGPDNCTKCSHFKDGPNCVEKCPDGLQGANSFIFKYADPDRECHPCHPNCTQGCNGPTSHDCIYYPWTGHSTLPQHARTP
Procedure: as §1
(§2) The binding activity of the respective antibody against the analytes was kinetically tested. Antibodies were captured at 35 nM concentration by a 1 min injection at 5 μl/min. The flow rate was set to 100 μl/min.
(§3) Analytes in solution were injected at different concentration steps of 0 nM, 1.1 nM, 3.7 nM, 11.1 nM, 33.1 nM and 90 nM for 3.5 min. The dissociation was monitored for 15 min. Where possible, kinetic signatures were evaluated according to a Langmuir fit.

HER4 ECD-HRG complex = molecular target: T3, HER4 ECD-HRG complex (human, UniProt Q15303 26-651); experiment: SPR Biacore T100, antibody captured, 25 C
T3 construct: HER4 ECD preincubated with a 5-fold molar excess of Heregulin
T3 sequence 1: T2 sequence
T3 sequence 2: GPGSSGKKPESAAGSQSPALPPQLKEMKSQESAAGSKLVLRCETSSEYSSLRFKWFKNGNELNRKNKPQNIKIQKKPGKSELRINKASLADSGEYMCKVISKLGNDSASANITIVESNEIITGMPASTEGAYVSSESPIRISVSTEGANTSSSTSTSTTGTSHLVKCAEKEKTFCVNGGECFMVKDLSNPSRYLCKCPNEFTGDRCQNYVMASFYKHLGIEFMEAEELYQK
Procedure: as §1, §2, §3

[3] = molecular target: T4, human HER2 Extracellular Domain (ECD) (human, UniProt P04626 23-652); experiment: SPR Biacore T100, antibody captured, 25 C
T4 construct: human recombinant, 69.6 kDa; also called Her2 ECD; HER2_ECD
Procedure: as §1, §2, §3

[4] = molecular target: T5, human Heregulin fragment (HRG) (human); experiment: SPR Biacore T100, antibody captured, 25 C
T5 construct: 44 kDa homodimeric protein, expressed in FreeStyle 293-F cells; also called Heregulin beta; HRG1β
T5 chain: T3 sequence 2
Procedure: as §1, §2, §3

[5] = molecular target: T6, human HER3 Extracellular Domain (ECD) (human, UniProt P21860 20-643); experiment: SPR Biacore T100, antibody captured, 25 C
T6 construct: human recombinant, 68 kDa; 'closed' conformation without ligand; also called Her3 ECD; Her-3 ECD
Procedure: as §1, §2, §3

HER3 ECD-HRG complex [6] = molecular target: T1, HER3 ECD-HRG complex; experiment: SPR Biacore T100, antibody captured, 25 C
Procedure: as §1, §2, §3

[7] = molecular target: T7, human HER1 (full length, on cells) (human, UniProt P00533 25-1210); experiment: IHC (Ventana Benchmark XT) on formalin-fixed, paraffin-embedded HEK293 cells transiently transfected with full length HER1
T7 construct: HEK293 cells transfected with full length HER1, fixed and embedded (IHC); also called EGFR
Procedure: All selected clones were tested for reactivity and specificity in IHC. […] After an additional fixation in formalin overnight the Agarose blocks were embedded in paraffin. Untransfected HEK293 cells were used as negative controls and treated accordingly to the transfected cells. After paraffin embedding 3 μm thin sections were prepared using a microtome. The sections were mounted on glass microscopy slides and dried for 2 h. All further steps of the immunohistochemical staining procedure were carried out using a Ventana Benchmark XT. The slides were dewaxed and antigen retrieval was performed by applying heat for 1 hour. For antigen retrieval the Ventana buffer CC1 was used. The antibodies were used at a concentration of 1 μg/ml. For the detection of bound antibody the Ventana UltraView detection kit was used.

TtSlyD-FKBP-Her3 = molecular target: T8, TtSlyD-FKBP-Her3; experiment: SPR Biacore 3000, antibody captured, 25 C
T8 construct: N-terminal Met present or not; also called thermo SlyD-Her3; ttSlyD-Her3
T8 chain: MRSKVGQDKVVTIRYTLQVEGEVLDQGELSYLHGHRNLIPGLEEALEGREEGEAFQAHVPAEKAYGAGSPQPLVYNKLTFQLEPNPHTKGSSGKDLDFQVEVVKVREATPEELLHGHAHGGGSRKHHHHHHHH

ratio MR (+Heregulin)/MR (-Heregulin) (HER3 ECD-HRG complex [1]): 3 fold
ratio ka (Her3-ECD-HRG)/ka (Her3-ECD) (HER3 ECD-HRG complex [1]): 4.85 fold
BL (Binding Late) [2]: 27 RU
Kd [2]: 150 nM
MR (Molar Ratio) [2]: 0.1
BL (Binding Late) (HER4 ECD-HRG complex): 349 RU
Kd (HER4 ECD-HRG complex): 5.2 nM and 5 nM
MR (Molar Ratio) (HER4 ECD-HRG complex): 0.6
koff (HER4 ECD-HRG complex): 0.00083 s⁻¹
kon (HER4 ECD-HRG complex): 160000 M⁻¹ s⁻¹
binding result [3]: no binding (tested: up to 90 nM)
binding result [4]: no binding (tested: up to 90 nM)
BL (Binding Late) [5]: 70 RU
Kd [5]: 2.2 nM and 2 nM
MR (Molar Ratio) [5]: 0.2
koff [5]: 2.8e-05 s⁻¹
kon [5]: 13000 M⁻¹ s⁻¹
BL (Binding Late) (HER3 ECD-HRG complex [6]): 160 RU
Kd (HER3 ECD-HRG complex [6]): 4.2 nM and 4 nM
MR (Molar Ratio) (HER3 ECD-HRG complex [6]): 0.6
koff (HER3 ECD-HRG complex [6]): 0.00027 s⁻¹
kon (HER3 ECD-HRG complex [6]): 63000 M⁻¹ s⁻¹
binding result [7]: no binding (tested: 1 µg/ml)
Kd (TtSlyD-FKBP-Her3): 27 nM
B1: anti-HER3/HER4 antibody M-05-74 (antibody, V domains shown)
VH: QVQLQQSGAELAKPGASVKMSCKTSGYTLTDYWIHWVKQRPGQGLEWIGYINPYTGYTESNQKFKDKATLTADKSSNTAYIQLSSLTSEDSAVYYCARPYYYGDYWGQGTTLTVSS
VL: QIVLTQSPAIMSASPGERVTITCSASSSVSYMHWFQQKPGTSPKLLIYSTSNLASGVPARFSGSGSGTSYSLTISRMEAEDAATYYCQQRSSYPFTFGSGTKLEIK
notes: murine monoclonal IgG from hybridoma (supernatant or purified), bivalent; also called M-074; M-5-74
